Like-named read-outs stand apart in the source and are kept apart here.

The target in experiment [1] is T1, HLA-A*0201 molecule expressed on human tumor cell line T2 (human).
T1 construct: surface HLA-A2 read with anti-HLA-A2 antibody BB7.2-PE by FACS; also called HLA-A2
The experiment can be described thus: T2 cell HLA-A2 stabilisation, FACS; peptide at 100 µM.

The target in experiment [2] is T1, HLA-A*0201 molecule expressed on human …. The experiment can be described thus: T2 cell HLA-A2 stabilisation, FACS; peptide at 6.25 µM.
Experiment [3] shares this target. Description: T2 cell HLA-A2 stabilisation, FACS; ratio of 20% concentration to that of HIV pol 589-597 (lower = stronger).
The target is the same in experiment [4]. The experiment can be described thus: T2 cell HLA-A2 stabilisation, FACS; peptide at 50 µM.
Experiment [5] has the same target. Description: T2 cell HLA-A2 stabilisation, FACS; 20% of signal of HIV pol 589-597 at 100 µM.
Experiment [6] has the same target. Description: T2 cell HLA-A2 stabilisation, FACS; ratio of 20% concentration to that of HIV pol 589-597 (lower = stronger). The source holds these as a separate data set.
Experiment [7] shares this target. Description: T2 cell HLA-A2 stabilisation, FACS; peptide at 0.1 µM.
Experiment [8] shares this target. Description: T2 cell HLA-A2 stabilisation, FACS; peptide at 1.5625 µM.
Experiment [9] has the same target. The experiment can be described thus: T2 cell HLA-A2 stabilisation, FACS; 20% of signal of HIV pol 589-597 at 100 µM. The source holds these as a separate data set.
Experiment [10] shares this target. Description: T2 cell HLA-A2 stabilisation, FACS; peptide at 25 µM.
Experiment [11] shares this target. The experiment can be described thus: T2 cell HLA-A2 stabilisation, FACS; peptide at 3.125 µM.
Experiment [12] has the same target. The experiment can be described thus: T2 cell HLA-A2 stabilisation, FACS; peptide at 100 µM. The source holds these as a separate data set.
Experiment [13] shares this target. Description: T2 cell HLA-A2 stabilisation, FACS; peptide at 1 µM.
Experiment [14] has the same target. The experiment can be described thus: T2 cell HLA-A2 stabilisation, FACS; peptide at 10 µM.
Experiment [15] shares this target. The experiment can be described thus: T2 cell HLA-A2 stabilisation, FACS; ratio of 20% concentration to that of HIV pol 589-597 (lower = stronger). The source holds these as a separate data set.
For experiment [16] the target is unchanged. The experiment is described as above. The source holds these as a separate data set.
The target is the same in experiment [17]. Description: T2 cell HLA-A2 stabilisation, FACS; 20% of signal of HIV pol 589-597 at 100 µM. The source holds these as a separate data set.
For experiment [18] the target is unchanged. Description: T2 cell HLA-A2 stabilisation, FACS; ratio of 20% concentration to that of HIV pol 589-597 (lower = stronger). The source holds these as a separate data set.
Experiment [19] shares this target. Description: T2 cell HLA-A2 stabilisation, FACS; 20% of signal of HIV pol 589-597 at 100 µM. This is another data set of the same source.

Consider LTLGEFLKL [BIRC5-H], for which the “mean relative fluorescence intensity” value in [1] was 35.6 relative (HIV peptide = 100); in [2] it was 10.8 relative (HIV peptide = 100); in experiment [4], 18.9 relative (HIV peptide = 100); in experiment [7] it was 0 relative (HIV peptide = 100); in experiment [8], 1.7 relative (HIV peptide = 100); in experiment [10] it was 9.8 relative (HIV peptide = 100). Moreover, the “mean relative fluorescence intensity” value in [11] is 1.4 relative (HIV peptide = 100); in [12], 20.5 relative (HIV peptide = 100); in experiment [13], 0 relative (HIV peptide = 100); in [14], 3.52 relative (HIV peptide = 100). For the same molecule, the “In vitro binding affinity (relative affinity)” value in [3] is 113; in experiment [6], 16.1. Moreover, the “Concentration of peptide that induces 20% of HLA-A2 expression” value was 95.9 µM in experiment [5] and 53 µM in experiment [9].
In the case of FLPFGFILPV (also called IL13R2A-L) [IL13RA2-L], the “In vitro binding affinity (relative affinity)” value was 0.53 in [15], 0.3 in experiment [16] and 0.3 in experiment [6].
For the molecule FLPFGFILV (also called candidate peptide) [IL13RA2-B], the “In vitro binding affinity (relative affinity)” value in experiment [15] came out at 2.48; in experiment [16], 0.3; in [6], 0.3; in experiment [18] it was 0.49. The “mean relative fluorescence intensity” value in [1] is 128 relative (HIV peptide = 100); in experiment [2] it was 40.8 relative (HIV peptide = 100); in experiment [4] it was 113 relative (HIV peptide = 100); in [8], 14.8 relative (HIV peptide = 100); in experiment [10] it was 86.5 relative (HIV peptide = 100); in experiment [11], 15.7 relative (HIV peptide = 100). The entries for the “Concentration of peptide that induces 20% of HLA-A2 expression” value in [17], in experiment [9] and in experiment [19] were 1.9 µM, 2.9 µM and 2.9 µM, respectively.

B1: 1A9V (peptide)
peptide: ALPFGFILV
notes: also called comparative peptide of Eguchi et al. 2006
Take B1: the “In vitro binding affinity (relative affinity)” value worked out at 27.7 in experiment [15], 3.6 in experiment [16] and 3.06 in experiment [18]. In addition, the “Concentration of peptide that induces 20% of HLA-A2 expression” value in experiment [17] was 20.9 µM; in experiment [19] it was 36.5 µM.

Values taken from patent US20230105457A1, “Immunogenic Compounds For Treatment Of Adrenal Cancer” (ENTEROME S.A., priority 2019, published 2023).
